The DeepSol protein solubility set

Assay: soluble on expression in E. coli; label from the status in PepcDB or PDB records

Sequence | soluble on expression in E. coli
MDTAGIRLTPKEIVSKLNEYIVGQNDAKRKVAIALRNRYRRSLLDEESKQEISPKNILMIGPTGVGKTEIARRMAKVVGAPFIKVEATKFTEVGYVGRDVESMVRDLVDVSVRLVKAQKKSLVQDEATAKANEKLVKLLVPSMKKKASQTNNPLESLFGGAIPNFGQNNEDEEEPPTEEIKTKRSEIKRQLEEGKLEKEKVRIKVEQDPGALGMLGTNQNQQMQEMMNQLMPKKKVEREVAVETARKILADSYADELIDQESANQEALELAEQMGIIFIDEIDKVATNNHNSGQDVSRQGVQRDILPILEGSVIQTKYGTVNTEHMLFIGAGAFHVSKPSDLIPELQGRFPIRVELDSLSVEDFVRILTEPKLSLIKQYEALLQTEEVTVNFTDEAITRLAEIAYQVNQDTDNIGARRLHTILEKMLEDLSFEAPSMPNAVVDITPQYVDDKLKSISTNKDLSAFIL | not soluble
MDTELMKLDVHVTAWSRTPSSSGFLNSVMISRDRDFEEFIINDRDGSVTSLGSYQNPSRGPDPLIFLDFRNFEPNYVYQLLLSQFHDHVLSEHIADQIGYTFGTCNSPTSTTDLDQESEEEE | soluble
MDTQDPLSQKYAISMLFFLLDRGNVKQFELLKIISSNMTIEKLSKILEEAGLINIKREFTGRKSYSFSLTPKGRLVAEQLKKAEEIAQKPSAEIEESVEKIELLLANEEAERIREWSFLLHINIMDDHITEEISGKSPRFFNIYIKRNGNGEFLLWCEQDNSYDCWHVKAAWTYPEVQKMMMHYKGKVKICHICGYENAEEGKFCTNCGTKLE | not soluble
MDVKMKGIVRVVPYDPEWKTEFLKIKAMIVDCAGDLIIDVVHVGSTAIEGLASKPIIDIDVVIDSYYVFPAVKDRLAKIGFEHEGNLGVEGREAFKRTFVDDFMPYHLYICPKDGKGYLEHIAFRNYLRDHPEAVKAYGELKMRLAEQFRTDITSYVNAKREFVQNVLKKINS | soluble
MDVLSGTQVTDPEQLIVNREEVDDIELKMAELLSDLERKVLALYLDGRSYQEISEELNRHVKSIDNALQRVKRKLEKYLEYREISL | not soluble
MDVNPTLLFLKVPAQNAISTTFPYTGDPPYSHGTGTGYTMDTVNRTHQYSEKGRWTTNTETGAPQLNPIDGPLPEDNEPSG | soluble
MDVRQSIHSAHAKTLDTQGLRNEFLVEKVFVADEYTMVYSHIDRIIVGGIMPITKTVSVGGEVGKQLGVSYFLERRELGVINIGGAGTITVDGQCYEIGHRDALYVGKGAKEVVFASIDTGTPAKFYYNCAPAHTTYPTKKVTPDEVSPVTLGDNLTSNRRTINKYFVPDVLETCQLSMGLTELAPGNLWNTMPCHTHERRMEVYFYFNMDDDACVFHMMGQPQETRHIVMHNEQAVISPSWSIHSGVGTKAYTFIWGMVGENQVFDDMDHVAVKDLR | not soluble
MDVVILDTGCANLSSVTYAVQRLGYTPVISRDPAVVLRADKLFMPGVGTAHAAMEQLRQRELIELIKSCTQPVLGICLGMQLLATSSEESGGITTLGMIDAPVKKMTDFGLPLPHMGWNQITAQAGNHLFRGIPDGTYFYFVHGYAMPICPNTIAQTNYGEPFTAAVEKDNFFGVQFHPERSGAAGAQLMKNFLEM | not soluble
MDYFPIFCQLQHKACLLVGGGEIAERKARLLLDAGALVTVNACEFTPQFHHWADQGQLSLISGEFVPELLADKWLVIAATDQLSVNALVYQSANQQRIFCNVVDDPKRTSFIMPSIIDRSPIMIAVSSGGKAPVLARLLREKLEALLPQHLGQLAGNLRQRVKQHFTVMTERRRFWEKLLTHDRLAQSLANNDHVQADQHVEQLFSAPLTDRGEVVLVGAGPGDAGLLTLKGLQQIQQADVVVYDRLVSDEVMNLVRRDAERIFVGKQSGHHCVPQEQINQILLQQAQSGKRVVRLKGGDPFIFGRGGEELEELAGYGIPFSVVPGITAASGCSAYSGIPLTHRDHAQSVRLVTGHAKKEGQLDWANLAAEKQTLVFYMGLSQAGEIQQQLIQHGMPATTQVALVENGTSRHQRVVSGELSQLALLSQQVSSPSLIIVGSVVSLREKLNWFSSRHHDDQPKVTECVAHVG | not soluble
MDYGMYFFEHVTPYETLVRRMERVIASGKTPFQDYFLFESKGFGKVLILDKDVQSTERDEYIYHETLVHPAMLTHPEPKRVLIVGGGEGATLREVLKHPTVEKAVMVDIDGELVEVAKRHMPEWHQGAFDDPRAVLVIDDARAYLERTEERYDVVIIDLTDPVGEDNPARLLYTVEFYRLVKAHLNPGGVMGMQAGMILLTHHRVHPVVHRTVREAFRYVRSYKNHIPGFFLNFGFLLASDAFDPAAFSEGVIEARIRERNLALRHLTAPYLEAMFVLPKDLLEALEKETMVSTDQNPFYVTPEGEARQAPYKG | soluble
MDYLIVGAGFTGATLAERLAAAGKRVLVVDRRDHIGGNAYDEMDPHGVLVHRYGPHIFHTNSKKVFDYLSRFTEWRPYYHRVRAVVEGKEVPLPFSLATLRALFSPKLADRLEEKLIARFGYGARVPILRLREEEDPDLRFLADYVYKNVFEGYTLKQWGLRPEELSPSVTARVPVLVSHDTRYFQDAYQAMPKEGYTALFRRMLAHPNIKLLLQADWKEVEGEVKFARLVFTGPIDEFFGYLHGPLPYRSLRFRMELHPGPWAQEVGTVNYPNEHPYTRVTEFKHLTGQDYLPHSTLCYEYPEAYEPGRNEPYYPVPREENEERYRLYLEEAKKLKGVYFAGRLGDYRYYNMDQAVARALKLFEEIVHE | soluble
MDYLPLFADLKQRPVLIVGGGEVAARKIELLHRAGAQVWVVAQTLSSELEQQYQDGRIHWLAQDFLPEQLDNVFLVIAATNDTVLNAAVFAAADQRCILANVVDDQPLCSFIFPSIVDRSPLVVAISSSGQAPVLARILREKLEALLPTRLSDMAAIAGRWRGRVKQHMASMGERRRFWEHAFSGRFASLISRGQLTEAENELQLSLEGQHRALGEVALVGAGPGDAGLLTLRGLQVMQQADVVLYDHLVSPEVLDLVRRDAERICVGKRAGAHSVTQEATNQLLVTLAQQGKRVVRLKGGDPFIFGRGGEELQVVAQAGIPFQVVPGVTAAAGATAYAGIPLTHRDHAQSVTFITGHCRPDGDDLDWQTLARGRQTLAIYMGTVKAAAISQQLIAHGRSSTTPVAVIGRGTRVDQQVLIGTLAQLESLAQQAPTPALLVIGEVVNLHHQIAWFGQQPQTESAISPSVVNLA | not soluble
MDYYYSLISPPCQSAILLAKKLGITLNLKKTNVHDPVERDALTKLNPQHTIPTLVDNGHVVWESYAIVLYLVETYAKDDTLYPKDPKVRSVVNQRLFFDIGTLYKRIIDVIHLVMKKEQPSDEQMEKLKGALDLLEQFVTERAYAAADHLTVADICLLGTVTALNWLKHDLEPFPHIRAWLERVRAEMPDYEEFSKQVADDTLAYVASRK | soluble
MEAIDMPYKITALQPFGVIVEPKHAPIHVNELDIDELRELFLREQLVLLRGFETFEHSEQFADYCERWGEVSVWPFGRVLDLVQKEDPGDHIFDSSYMPMHWDGMYRPQVPEYQIFQCVKAPLPGHGGRTTFSHTMLALQHAPQPDLELWQQVTGHYQRKMEFYHSKTVSPIVMQHPYRDYQVIRYNEPHFEENGDLLNPPDVSLSGITPEQAIEFHKSLRRALYDPRNFYAHEWQTGDIVITDNFSLLHGREAFTSHTPRHIRRVQVLSNPPYNNPSLESYQCPQK | not soluble
MEALDSSSFTFPQDYEFSYVVNHNCSADGNTYCVQPVKPTTVSRFGTRYIKFDIKALPVGSPIPCKSPKEWRVIKG | not soluble
MECGLGGAGQPAVEAEGVWKRLGGRWVLKDVSLTVPRGSVYGVVGPNGAGKTTLFRTLLGLYRADRGRVALLGEPVERAGGSLFRRVAYLPEDGEPYRNMTGHEFLRLYASIYGVEDLEGYLEEASRLSGLGGRLGERVRSYSKGMRRRLLVAAMLALKPSLAVLDEPTAGLDPVYSVGIRRLLKEYSERHGVTVLLSSHNMYEVESVCSEITMISSGRIVYSGSPGEAVRRTGASSLEEAYVALVTGGGGES | soluble
MEDDPVWRFDDRDVILYNIALGATTKQLKYVYENDSDFQVIPTFGHLITFNSGKSQNSFAKLLRNFNPMLLLHGEHYLKVHSWPPPTEGEIKTTFEPIATTPKGTNVVIVHGSKSVDNKSGELIYSNEATYFIRNCQADNKVYADRPAFATNQFLAPKRAPDYQVDVPVSEDLAALYRLSGDRNPLHIDPNFAKGAKFPKPILHGMCTYGLSAKALIDKFGMFNEIKARFTGIVFPGETLRVLAWKESDDTIVFQTHVVDRGTIAINNAAIKLVGDKAKI | soluble
MEDENILRNAVNLQVLKFHYPEIESIIDIASHVAVYQFDVGSQKWLKTSIEGTFFLVKDQRARVGYVILNRNSPENLYLFINHPSNVHLVDRYLIHRTENQHVVGLWMFDPNDMSRIFNIVKESLLR | soluble
MEDGHISSWWVVDLGEEHQLMCNYYTFRQDGSRAFTRFWKFQGSMDGKTWTDLRVHEDDQTMCKAGQFASWPITAANALLPFRFFRLVLTGPTADTSTPWNFCICYLELYGYFR | not soluble
MEDISDPEVILEYGVYPAFIKGYTQLKANIEEALLEMSNSGQALDIYQAVQTLNAENMLLNYYESLPFYLNRQSILANMTKALKDAHIREAMAHYKLGEFAHYQDTMLDMVERTIKTF | not soluble
MEDKKDALISKTISMLLDNGFAVADISGQFSASFDIIARRNIERYVLKVLYNIDTLKPTTAYQLAKVAKFLRSTATIVGEKAGGGPLEDGVIYYRHGIPISSLDTFRDYINGEKPYIYSGPGGFYVKINGEALREMRMKMSLSIGYLSHYLGVSRRSVSLYENGSSATIDVFLKLQEIIKSDLVDHTDLFKIIPDNFQEEERVDDVYIQMLLDILERIGLDTKPAYRMPFDILARDEEVVSLIASLLSEEADKTKIEIMKKISSVLEDDAFLISKHSTTRENINGCPVINIVDLEKMTSKDELLRMLEKRAR | not soluble
MEDKVDVLIIGGGASGVTSGIQSARMGANTLILEESTWLGGMLTSAGVSAVDGNYRLPAGLWGEFKNRLSDYYGGLDSLKTGWVSNVLFEPSVGNKILHEMVAAENNLKVWKQACLEEVKRTGDEWVAKVKVEGQGVKTVRAKVMIDATELGDVAKMCGVKYDIGLEHHHHHH | soluble
MEDPLGRLEWIKFLSAFYDKEDKAENYFNQQVSKVMATENKVSSLKKPKVAFGMVDNGKVYIPAKNSYAAKMVDMAGGDYIFKDLNNKSGYITLEDFYSKSKDADVLIYSSSKEYTPSLKSMLSAAPILKTIKPVKNKKVWCFGKDYYQAIDKTDEIIEDLASIFHPESFKGLEHHHHHH | not soluble
MEDPQSKEPAGEAVALALLESPRPEGGEEPPRPSPEETQQCKFDGQETKGSKFITSSASDFSDPVYKEIAITNGCINRMSKEELRAKLSEFKLETRGVKDVLKKRLKNYYKKQKLMLKESNFADSYYDYICIIDFEATCEEGNPPEFVHEIIEFPVVLLNTHTLEIEDTFQQYVRPEINTQLSDFCISLTGITQDQVDRADTFPQVLKKVIDLMKLKELGTKYKYSLLTDGSWDMSKFLNIQCQLSRLKYPPFAKKWINIRKSYGNFYKVPRSQTKLTIMLEKLGMDYDGRPHCGLDDSKNIARIAVRMLQDGCELRINEKMHAGQLMSVSSSLPIEGTPPPQMPHFRK | soluble
MEEDLLGICGFDSSKKYRLEELAKYQSGSCIEFEDDDEMAVDYPCPFCSDDYDLVELCHHIDEEHQLDANNGICPVCSRRVKMHMVDHITTQHRDVFKRLYKDESYSAFSPGTRKYLQSLIDEPLSTNHTSKSVLDPLLSFIYNPPSPKKSKLVQPDSSSEASMEDNSLIRDSTEKDWESPSPLSDTELLEKAKKREFVQGLISSAIFDHIYNF | soluble
